Here are results for 3 sequences from the supplement of paper PMC6379048.

One series concerns the target T1, RBMS2 (UniProt Q15434).
T1 sequence: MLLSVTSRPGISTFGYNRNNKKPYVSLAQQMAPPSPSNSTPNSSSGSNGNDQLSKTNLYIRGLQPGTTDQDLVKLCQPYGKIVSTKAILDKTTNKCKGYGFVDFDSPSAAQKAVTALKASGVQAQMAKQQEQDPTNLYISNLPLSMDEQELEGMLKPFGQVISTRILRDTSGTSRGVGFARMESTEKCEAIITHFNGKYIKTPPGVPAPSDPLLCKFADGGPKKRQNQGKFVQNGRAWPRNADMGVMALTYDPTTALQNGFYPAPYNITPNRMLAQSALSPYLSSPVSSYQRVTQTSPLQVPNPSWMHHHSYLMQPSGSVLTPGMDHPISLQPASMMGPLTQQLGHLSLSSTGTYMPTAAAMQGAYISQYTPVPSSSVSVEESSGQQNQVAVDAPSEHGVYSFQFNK
As to the kind of experiment: Kd (EC50 corrected by depletion factor). The procedure, abridged: (§1)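 HEK293-FT lysate (2.5 mg protein/well) was treated with free RNA oligos (0 nM to 30 μM) for 1 h at 4°C, then with the same oligos on NHS-Sepharose beads for 30 min at 4°C. Bound proteins were quantified by label-free LC-MS/MS relative to the control. EC50 came from a four-parameter log-logistic fit, and Kd is EC50 times a protein-dependent depletion factor.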

A further series has as its target T2, SYMPK (UniProt Q92797).
T2 sequence: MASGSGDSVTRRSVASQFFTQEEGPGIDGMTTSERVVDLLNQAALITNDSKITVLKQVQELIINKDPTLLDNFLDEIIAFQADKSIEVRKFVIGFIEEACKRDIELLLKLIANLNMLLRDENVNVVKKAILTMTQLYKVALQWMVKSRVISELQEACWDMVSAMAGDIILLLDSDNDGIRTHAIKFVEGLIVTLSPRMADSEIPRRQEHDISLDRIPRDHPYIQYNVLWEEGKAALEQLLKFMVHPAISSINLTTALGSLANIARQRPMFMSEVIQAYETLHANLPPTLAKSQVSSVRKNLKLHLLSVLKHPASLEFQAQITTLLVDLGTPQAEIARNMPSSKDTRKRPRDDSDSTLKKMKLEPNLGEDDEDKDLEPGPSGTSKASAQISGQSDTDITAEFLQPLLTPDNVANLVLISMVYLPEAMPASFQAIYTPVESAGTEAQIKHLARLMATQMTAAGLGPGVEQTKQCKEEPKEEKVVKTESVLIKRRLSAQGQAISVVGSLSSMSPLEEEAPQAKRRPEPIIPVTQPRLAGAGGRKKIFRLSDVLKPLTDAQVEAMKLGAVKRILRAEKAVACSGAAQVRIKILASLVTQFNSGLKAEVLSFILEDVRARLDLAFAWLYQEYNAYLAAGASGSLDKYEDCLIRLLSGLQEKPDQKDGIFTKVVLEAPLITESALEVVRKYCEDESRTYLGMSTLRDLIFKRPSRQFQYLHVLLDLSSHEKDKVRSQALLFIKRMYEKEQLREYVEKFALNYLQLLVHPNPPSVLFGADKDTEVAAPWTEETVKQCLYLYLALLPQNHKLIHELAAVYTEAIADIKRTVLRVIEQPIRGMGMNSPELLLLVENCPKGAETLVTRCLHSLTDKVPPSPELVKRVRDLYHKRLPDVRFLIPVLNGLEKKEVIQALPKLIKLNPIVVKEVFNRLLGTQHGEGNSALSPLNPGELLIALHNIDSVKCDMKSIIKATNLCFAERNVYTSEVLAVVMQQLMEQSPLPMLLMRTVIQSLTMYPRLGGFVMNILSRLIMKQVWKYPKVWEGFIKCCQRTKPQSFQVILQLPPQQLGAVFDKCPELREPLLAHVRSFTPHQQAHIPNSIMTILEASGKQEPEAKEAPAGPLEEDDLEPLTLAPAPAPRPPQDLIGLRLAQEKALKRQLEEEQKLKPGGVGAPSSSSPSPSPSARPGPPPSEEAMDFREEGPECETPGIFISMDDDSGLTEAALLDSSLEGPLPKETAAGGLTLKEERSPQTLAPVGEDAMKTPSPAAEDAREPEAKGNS
Nature of the series: Kd (EC50 corrected by depletion factor). The procedure, abridged: as §1

For another series, the target named is T3, DAZAP1 (UniProt Q96EP5).
T3 sequence: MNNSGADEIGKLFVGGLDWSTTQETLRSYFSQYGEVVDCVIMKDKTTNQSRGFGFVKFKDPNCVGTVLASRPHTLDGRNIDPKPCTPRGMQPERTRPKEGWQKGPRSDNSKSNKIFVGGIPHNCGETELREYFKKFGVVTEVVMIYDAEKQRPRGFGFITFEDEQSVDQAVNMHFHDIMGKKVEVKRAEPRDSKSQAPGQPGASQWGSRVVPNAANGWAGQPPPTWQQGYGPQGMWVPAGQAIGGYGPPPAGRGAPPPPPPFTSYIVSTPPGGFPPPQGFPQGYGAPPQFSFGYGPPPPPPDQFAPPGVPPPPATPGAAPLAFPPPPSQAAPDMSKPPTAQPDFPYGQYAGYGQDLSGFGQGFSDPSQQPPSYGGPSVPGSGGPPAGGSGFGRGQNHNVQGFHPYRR
Nature of the series: EC50 of free RNA motif oligo competing protein binding to immobilised probe. The procedure, abridged: as §1

The target in another series is SLIRP (UniProt Q9GZT3). The description is as above. The procedure, abridged: as §1

As usually defined, the Kd is the equilibrium constant for the complex coming apart. Lower therefore signals tighter binding. In general, EC50 refers to the concentration needed to bring the measured effect to its halfway point. Read a low EC50 as greater potency.

As for AAUAAA, the dissociation constant Kd is 158 nM with RBMS2 and 12.7 nM with SYMPK. Moreover, the values for the EC50 with DAZAP1 and with SLIRP were 1240 nM and 1580 nM, respectively.
With CUGUCCU, in the series with SLIRP, the EC50 came out at 1530 nM.
Consider UAUUUAU, for which the Kd was found to be 274 nM in the series with RBMS2 and 254 nM in the series with SYMPK. For the same sequence, in the series with DAZAP1, the EC50 was found to be 1220 nM.
